According to PMC12087824 (2025):

Target: human CD40 receptor (hCD40) (human, UniProt P25942 21-277)
Test: BLI

Chain of human CD40 receptor (hCD40) (P25942 21-277): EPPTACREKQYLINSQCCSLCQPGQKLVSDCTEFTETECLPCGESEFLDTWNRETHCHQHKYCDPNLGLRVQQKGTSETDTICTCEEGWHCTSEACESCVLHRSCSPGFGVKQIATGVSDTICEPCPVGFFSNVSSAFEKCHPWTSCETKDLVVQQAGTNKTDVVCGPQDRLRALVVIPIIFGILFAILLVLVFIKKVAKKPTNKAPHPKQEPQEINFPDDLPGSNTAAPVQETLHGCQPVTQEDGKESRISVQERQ

- Kd: 288 nM
B1: DARPin WT_(CD40) binding the human CD40 receptor (designed binder)
chain: GSDLGKKLLQAARAGQLDEVRELLKAGADVNAKDTWGFTPLHIAAESGHLEIVEVLLKAGADVNAKDVQGRTPLHIAAHSGHLEIVEVLLKAGADVNAKDFRGWTPLHLAAWSGHLEIVEILLKAGADVNAQDKSGKTPADLAARAGHQDIAEVLQKAA
